Measurements reported in the supplement of paper PMC10065799, “High-throughput profiling of sequence recognition by tyrosine kinases and SH2 domains using bacterial peptide display” (eLife, 2023).

Tests used:
c-Src SH2 = assay: SH2 binding enrichment of the phosphorylated peptide, bacterial display (enrichment ratio); higher = better substrate or ligand; peptides without Tyr show the background
Grb2 SH2 = Grb2 SH2 (UniProt P62993); assay: as above
SHP2-C SH2 = assay: as above
AncSZ = assay: phosphorylation enrichment, bacterial display (enrichment ratio); higher = better substrate or ligand; peptides without Tyr show the background
Jak2 = Jak2 (UniProt O60674); assay: as above
Fes = Fes (UniProt P07332); assay: as above
EPHB2 = EPHB2 (UniProt P29323); assay: as above
MERTK = MERTK (UniProt Q12866); assay: as above
FGFR3 = FGFR3 (UniProt P22607); assay: as above
c-Src = assay: as above
EPHB1 = EPHB1 (UniProt P54762); assay: as above
Fer (mouse) = assay: as above
c-Abl (mouse) = assay: as above
Hck = Hck (UniProt P08631); assay: as above
Fyn = Fyn (UniProt P06241); assay: as above
FGFR1 = FGFR1 (UniProt P11362); assay: as above
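Wherever SH2 binding enrichment of the phosphorylated peptide, bacterial display is given: peptide library displayed on the E. coli surface as eCPX fusions, selected cells deep-sequenced, score is each peptide's frequency after selection divided by its frequency in the input.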
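Wherever phosphorylation enrichment, bacterial display is given: 11-residue human phosphosite peptides and single-mutation variants displayed on the E. coli surface, counted by deep sequencing, each peptide's frequency after selection divided by its frequency in the unselected input library; frequency after pTyr selection over input frequency; kinase dosed for 20-30% of maximal phosphorylation in three min.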

MERTK, sequence (Q12866 whole entry, looked up): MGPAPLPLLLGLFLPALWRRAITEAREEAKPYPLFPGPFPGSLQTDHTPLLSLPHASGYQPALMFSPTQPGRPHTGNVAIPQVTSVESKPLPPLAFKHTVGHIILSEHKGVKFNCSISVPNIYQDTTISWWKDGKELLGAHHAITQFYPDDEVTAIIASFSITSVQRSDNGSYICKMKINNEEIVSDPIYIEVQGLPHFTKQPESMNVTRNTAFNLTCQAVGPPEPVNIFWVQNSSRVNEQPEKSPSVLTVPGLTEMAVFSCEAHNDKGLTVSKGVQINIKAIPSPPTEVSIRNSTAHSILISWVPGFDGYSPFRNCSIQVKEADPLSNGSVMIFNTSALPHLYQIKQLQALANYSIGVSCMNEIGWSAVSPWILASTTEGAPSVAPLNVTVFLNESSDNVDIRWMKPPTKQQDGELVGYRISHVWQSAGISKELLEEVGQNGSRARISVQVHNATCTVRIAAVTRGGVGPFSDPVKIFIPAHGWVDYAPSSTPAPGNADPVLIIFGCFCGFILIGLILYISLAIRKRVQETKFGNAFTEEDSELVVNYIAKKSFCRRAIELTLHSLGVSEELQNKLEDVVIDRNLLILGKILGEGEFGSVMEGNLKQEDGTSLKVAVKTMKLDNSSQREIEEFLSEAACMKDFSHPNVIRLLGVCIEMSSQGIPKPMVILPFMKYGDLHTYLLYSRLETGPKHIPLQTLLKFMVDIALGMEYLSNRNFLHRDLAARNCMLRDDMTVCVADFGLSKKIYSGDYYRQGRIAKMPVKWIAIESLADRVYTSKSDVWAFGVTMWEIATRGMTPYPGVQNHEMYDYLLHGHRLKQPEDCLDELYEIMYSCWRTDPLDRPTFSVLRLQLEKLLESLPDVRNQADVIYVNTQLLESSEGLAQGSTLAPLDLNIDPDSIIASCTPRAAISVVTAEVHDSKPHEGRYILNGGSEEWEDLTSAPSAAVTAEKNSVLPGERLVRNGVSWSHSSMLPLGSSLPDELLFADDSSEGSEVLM
FGFR1, sequence (P11362 whole entry, looked up, the tested form may be a part): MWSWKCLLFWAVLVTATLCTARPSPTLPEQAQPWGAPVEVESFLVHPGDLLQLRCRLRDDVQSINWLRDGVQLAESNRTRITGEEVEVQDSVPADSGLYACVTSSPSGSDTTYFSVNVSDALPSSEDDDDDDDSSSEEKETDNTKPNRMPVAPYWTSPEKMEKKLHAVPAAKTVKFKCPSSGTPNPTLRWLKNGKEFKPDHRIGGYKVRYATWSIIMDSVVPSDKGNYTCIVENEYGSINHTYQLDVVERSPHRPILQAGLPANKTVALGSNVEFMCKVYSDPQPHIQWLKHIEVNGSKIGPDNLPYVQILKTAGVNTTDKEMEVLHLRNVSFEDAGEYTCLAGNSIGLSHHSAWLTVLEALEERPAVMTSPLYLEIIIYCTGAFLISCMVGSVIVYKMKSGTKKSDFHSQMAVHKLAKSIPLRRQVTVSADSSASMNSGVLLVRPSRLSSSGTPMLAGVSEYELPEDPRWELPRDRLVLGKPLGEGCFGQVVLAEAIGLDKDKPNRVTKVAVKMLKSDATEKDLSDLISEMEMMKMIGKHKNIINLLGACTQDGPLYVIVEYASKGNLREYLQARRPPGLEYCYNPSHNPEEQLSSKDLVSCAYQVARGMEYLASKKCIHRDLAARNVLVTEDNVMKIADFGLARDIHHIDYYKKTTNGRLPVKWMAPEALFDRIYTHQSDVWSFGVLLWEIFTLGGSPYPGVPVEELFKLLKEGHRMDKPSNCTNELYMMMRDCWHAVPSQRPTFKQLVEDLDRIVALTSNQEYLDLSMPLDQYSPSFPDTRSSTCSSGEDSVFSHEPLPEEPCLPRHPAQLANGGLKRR
Jak2, sequence (O60674 whole entry, looked up): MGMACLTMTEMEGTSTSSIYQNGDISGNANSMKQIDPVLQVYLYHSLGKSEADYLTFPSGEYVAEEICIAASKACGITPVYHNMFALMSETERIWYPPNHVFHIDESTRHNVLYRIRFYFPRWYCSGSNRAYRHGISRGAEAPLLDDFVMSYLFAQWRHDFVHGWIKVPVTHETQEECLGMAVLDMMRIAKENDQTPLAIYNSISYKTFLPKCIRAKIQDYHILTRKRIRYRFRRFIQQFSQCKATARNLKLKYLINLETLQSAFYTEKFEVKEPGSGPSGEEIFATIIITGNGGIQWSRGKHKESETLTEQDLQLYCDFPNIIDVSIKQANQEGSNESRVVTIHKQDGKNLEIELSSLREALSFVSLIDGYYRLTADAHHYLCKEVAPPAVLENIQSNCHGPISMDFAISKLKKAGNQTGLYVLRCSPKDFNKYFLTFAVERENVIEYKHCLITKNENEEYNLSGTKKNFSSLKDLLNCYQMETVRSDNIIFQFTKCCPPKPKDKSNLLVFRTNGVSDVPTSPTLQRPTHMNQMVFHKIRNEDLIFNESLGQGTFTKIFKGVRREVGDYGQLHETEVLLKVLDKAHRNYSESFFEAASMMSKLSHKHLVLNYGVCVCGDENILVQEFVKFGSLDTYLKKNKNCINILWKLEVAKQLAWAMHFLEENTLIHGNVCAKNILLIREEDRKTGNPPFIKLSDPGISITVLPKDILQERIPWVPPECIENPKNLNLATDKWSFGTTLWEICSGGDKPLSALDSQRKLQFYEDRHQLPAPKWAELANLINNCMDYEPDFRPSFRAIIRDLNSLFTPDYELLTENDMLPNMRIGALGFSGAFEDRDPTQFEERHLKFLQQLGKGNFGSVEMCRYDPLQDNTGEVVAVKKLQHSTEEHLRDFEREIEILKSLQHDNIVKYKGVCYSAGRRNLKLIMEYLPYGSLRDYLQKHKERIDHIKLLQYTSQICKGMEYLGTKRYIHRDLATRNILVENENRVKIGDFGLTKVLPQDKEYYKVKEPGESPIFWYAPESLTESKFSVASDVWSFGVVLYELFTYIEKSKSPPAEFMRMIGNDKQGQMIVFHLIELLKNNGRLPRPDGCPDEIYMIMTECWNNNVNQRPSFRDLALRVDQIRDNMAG
Fes, sequence (P07332 whole entry, looked up): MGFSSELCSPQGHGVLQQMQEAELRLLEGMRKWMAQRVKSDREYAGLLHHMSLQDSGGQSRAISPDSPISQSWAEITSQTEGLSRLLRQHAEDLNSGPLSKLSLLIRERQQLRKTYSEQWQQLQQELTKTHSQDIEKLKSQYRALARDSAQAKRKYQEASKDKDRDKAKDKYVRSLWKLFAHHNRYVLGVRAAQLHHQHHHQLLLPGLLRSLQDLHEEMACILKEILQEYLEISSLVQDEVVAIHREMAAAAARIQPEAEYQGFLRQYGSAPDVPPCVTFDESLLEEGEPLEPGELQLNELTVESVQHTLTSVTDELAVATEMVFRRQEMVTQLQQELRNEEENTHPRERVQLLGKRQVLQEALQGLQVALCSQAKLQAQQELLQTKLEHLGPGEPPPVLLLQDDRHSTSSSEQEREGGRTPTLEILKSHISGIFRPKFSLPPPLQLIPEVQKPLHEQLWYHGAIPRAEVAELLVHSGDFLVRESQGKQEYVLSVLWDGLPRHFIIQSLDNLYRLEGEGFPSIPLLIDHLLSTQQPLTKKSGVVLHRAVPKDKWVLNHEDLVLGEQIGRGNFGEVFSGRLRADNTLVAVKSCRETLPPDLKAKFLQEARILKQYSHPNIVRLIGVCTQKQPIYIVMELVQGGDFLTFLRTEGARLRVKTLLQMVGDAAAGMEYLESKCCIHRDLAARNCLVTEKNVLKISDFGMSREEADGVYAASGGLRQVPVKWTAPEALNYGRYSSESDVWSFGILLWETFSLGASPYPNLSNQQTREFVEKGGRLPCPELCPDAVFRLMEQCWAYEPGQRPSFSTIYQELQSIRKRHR
FGFR3, sequence (P22607 whole entry, looked up): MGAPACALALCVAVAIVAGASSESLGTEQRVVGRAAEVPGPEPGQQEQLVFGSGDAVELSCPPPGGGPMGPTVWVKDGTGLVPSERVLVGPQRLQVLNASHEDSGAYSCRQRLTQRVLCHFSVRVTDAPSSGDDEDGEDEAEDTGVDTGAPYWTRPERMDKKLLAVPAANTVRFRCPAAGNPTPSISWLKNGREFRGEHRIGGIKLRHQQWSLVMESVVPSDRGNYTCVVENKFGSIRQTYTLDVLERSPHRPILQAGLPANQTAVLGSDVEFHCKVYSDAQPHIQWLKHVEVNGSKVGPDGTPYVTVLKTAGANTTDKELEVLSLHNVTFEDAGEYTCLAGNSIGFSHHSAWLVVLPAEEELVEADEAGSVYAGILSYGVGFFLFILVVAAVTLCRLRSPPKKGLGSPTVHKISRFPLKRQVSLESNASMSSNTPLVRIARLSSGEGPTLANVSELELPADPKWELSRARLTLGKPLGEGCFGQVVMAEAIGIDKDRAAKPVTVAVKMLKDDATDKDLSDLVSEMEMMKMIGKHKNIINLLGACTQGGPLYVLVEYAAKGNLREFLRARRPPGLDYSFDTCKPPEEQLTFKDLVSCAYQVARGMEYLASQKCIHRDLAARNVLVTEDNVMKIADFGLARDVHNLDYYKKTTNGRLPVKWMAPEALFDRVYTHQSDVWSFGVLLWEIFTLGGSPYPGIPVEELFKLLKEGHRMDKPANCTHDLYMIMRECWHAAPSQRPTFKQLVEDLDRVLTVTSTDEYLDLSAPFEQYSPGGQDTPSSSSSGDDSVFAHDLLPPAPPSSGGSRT

Row | Sequence | SH2 binding enrichment (c-Src SH2) | SH2 binding enrichment (Grb2 SH2) | SH2 binding enrichment (SHP2-C SH2) | phosphorylation enrichment (AncSZ) | phosphorylation enrichment (Jak2) | phosphorylation enrichment (Fes) | phosphorylation enrichment (EPHB2) | phosphorylation enrichment (MERTK) | phosphorylation enrichment (FGFR3) | phosphorylation enrichment (c-Src) | phosphorylation enrichment (EPHB1) | phosphorylation enrichment (Fer (mouse)) | phosphorylation enrichment (c-Abl (mouse)) | phosphorylation enrichment (Hck) | phosphorylation enrichment (Fyn) | phosphorylation enrichment (FGFR1)
1 | SYVVRYNQPRV [GRIN2D_Y736_M733V] | 1.31 | 1.05 | 1.09 | 0.843 | 0.725 | 0.891 | 0.478 | 0.375 | 0.588 | 0.405 | 0.478 | 0.419 | 0.717 | 0.475 | 0.433 | 0.452
2 | TCFDKYTGSTY [FN1_Y101_N104S] | 0.51 | 0.997 | 0.691 | 0.843 | 0.747 | 0.737 | 0.556 | 0.399 | 0.534 | 0.5 | 0.442 | 0.418 | 0.579 | 0.652 | 0.469 | 0.556
3 | THEVRYISAGQ [SLCO4A1_Y77_V78I] | 0.495 | 0.726 | 0.65 | 0.683 | 0.669 | 0.705 | 0.396 | 0.408 | 0.53 | 0.418 | 0.426 | 0.379 | 0.838 | 0.416 | 0.391 | 0.361
4 | TIMTDYNPNYC [ALK_Y1092] | 0.663 | 1.11 | 0.654 | 1.33 | 1.24 | 1.26 | 0.531 | 0.6 | 0.904 | 0.552 | 0.999 | 0.548 | 0.923 | 0.66 | 0.439 | 0.715
5 | TLSGIYQFIIA [FOXL2_Y81_YF] | 1.24 | 1.49 | 1.13 | 1.81 | 1.2 | 3.16 | 9.15 | 10.1 | 7.18 | 5.96 | 14.2 | 15 | 2.71 | 8.44 | 6.83 | 10.4
6 | TQNGVYSAANY [DDX5_Y535] | 0.838 | 0.842 | 0.536 | 0.69 | 0.5 | 0.699 | 1.85 | 4.8 | 0.514 | 6.11 | 1.26 | 1.87 | 1.04 | 8.68 | 7.45 | 0.454
7 | TRDVNYGWIIR [MT-CYB_Y75] | 0.55 | 1.22 | 1.28 | 0.997 | 0.949 | 0.999 | 0.91 | 0.756 | 0.654 | 0.423 | 0.542 | 0.443 | 0.595 | 0.422 | 0.475 | 0.344
8 | TRDVNYGWTIR [MT-CYB_Y75_I78T] | 0.515 | 1.29 | 1.02 | 1.39 | 0.834 | 0.969 | 0.648 | 0.495 | 0.636 | 0.492 | 0.544 | 0.588 | 0.534 | 0.478 | 0.441 | 0.46
9 | TSSAIYMNLAS [GATAD2B_Y317] | 1.4 | 4.48 | 1.46 | 0.949 | 0.997 | 1.01 | 3.51 | 8.39 | 1.94 | 6.07 | 8.76 | 3.71 | 3.29 | 6.95 | 6.11 | 3
10 | TSSSSYFDEPV [ARFGAP3_Y356] | 0.569 | 0.762 | 0.827 | 1.1 | 0.98 | 1.01 | 0.576 | 0.421 | 0.749 | 0.47 | 0.549 | 0.506 | 0.841 | 0.5 | 0.478 | 0.486
11 | TTKAKYKTPIY [PLD2_Y573_T577I] | 0.793 | 0.908 | 0.775 | 0.823 | 0.587 | 0.928 | 0.46 | 0.574 | 0.596 | 0.541 | 0.542 | 0.459 | 0.695 | 0.789 | 0.771 | 0.46
12 | TTKAKYKTPTY [PLD2_Y573] | 0.541 | 0.906 | 0.848 | 0.473 | 0.488 | 0.501 | 0.313 | 0.362 | 0.32 | 0.406 | 0.328 | 0.336 | 0.539 | 0.443 | 0.393 | 0.287

Continued, in another order:

Row | SH2 binding enrichment (c-Src SH2) | SH2 binding enrichment (Grb2 SH2) | SH2 binding enrichment (SHP2-C SH2) | Sequence | phosphorylation enrichment (AncSZ) | phosphorylation enrichment (Jak2) | phosphorylation enrichment (Fes) | phosphorylation enrichment (EPHB2) | phosphorylation enrichment (MERTK) | phosphorylation enrichment (FGFR3) | phosphorylation enrichment (c-Src) | phosphorylation enrichment (EPHB1) | phosphorylation enrichment (Fer (mouse)) | phosphorylation enrichment (c-Abl (mouse)) | phosphorylation enrichment (Hck) | phosphorylation enrichment (Fyn) | phosphorylation enrichment (FGFR1)
13 | 0.647 | 0.859 | 0.647 | TARREYMHSPS [CPOX_Y429_W427R] | 0.489 | 0.468 | 0.656 | 0.449 | 0.43 | 0.355 | 0.432 | 0.345 | 0.396 | 0.507 | 0.471 | 0.63 | 0.349
14 | 0.443 | 0.677 | 1.75 | TDKLFYIYTSG [SLC27A4_Y243] | 1.5 | 1.48 | 1.94 | 0.682 | 0.589 | 0.811 | 0.542 | 0.701 | 0.517 | 1.18 | 0.522 | 0.48 | 0.565
15 | 1.28 | 0.857 | 0.649 | TEQDPYNNIVR [MMUT_Y364] | 1.01 | 0.881 | 0.978 | 0.499 | 0.451 | 0.601 | 0.581 | 0.5 | 0.45 | 0.582 | 0.555 | 0.545 | 0.466
16 | 0.529 | 0.765 | 0.709 | TGDFGYRTPGF [TNS2_Y668_A670T_YF] | 0.523 | 0.526 | 0.632 | 0.419 | 0.429 | 0.517 | 0.413 | 0.48 | 0.399 | 0.706 | 0.401 | 0.457 | 0.438
17 | 1.6 | 0.911 | 0.712 | TGDRPYVCPFD [YY1_Y383] | 1.04 | 0.653 | 0.932 | 0.46 | 0.481 | 0.635 | 0.456 | 0.474 | 0.431 | 0.706 | 0.464 | 0.509 | 0.59
18 | 3.11 | 0.81 | 1.06 | TGEKPYECVQC [ZNF24_Y335] | 0.755 | 0.664 | 0.7 | 0.507 | 0.509 | 0.531 | 0.501 | 0.514 | 1.87 | 0.519 | 0.521 | 0.515 | 0.501
19 | 0.495 | 0.771 | 0.927 | THEVRYVSAGQ [SLCO4A1_Y77] | 0.733 | 0.632 | 0.773 | 0.368 | 0.368 | 0.45 | 0.366 | 0.393 | 0.47 | 0.485 | 0.374 | 0.398 | 0.416
20 | 0.579 | 0.978 | 0.714 | TLNVRHESVQA [CEACAM7_Y236_Y236H] | 0.564 | 0.831 | 0.59 | 0.44 | 0.348 | 0.39 | 0.466 | 0.38 | 0.374 | 0.415 | 0.366 | 0.378 | 0.451
21 | 0.434 | 0.74 | 0.493 | TNGFTYGSSHQ [MANEA_Y331] | 0.566 | 0.413 | 0.576 | 0.31 | 0.441 | 0.39 | 0.404 | 0.444 | 0.514 | 0.412 | 0.443 | 0.492 | 0.525
22 | 0.669 | 1.01 | 12.1 | TNYSLYLRSLE [MTM1_Y71_R69S] | 0.952 | 1.29 | 1.15 | 0.671 | 0.602 | 0.659 | 0.42 | 0.722 | 0.555 | 0.574 | 0.601 | 0.423 | 0.456
23 | 0.696 | 1 | 1.1 | TQPSPYAVFRF [RPGRIP1_Y823_YF] | 0.952 | 0.824 | 0.805 | 0.922 | 9.69 | 0.8 | 7.72 | 2.6 | 9.31 | 24.8 | 8.6 | 10.7 | 0.893
24 | 0.528 | 0.814 | 0.78 | TRFDEYLEVTK [MAP1A_Y2217_H2214Y_YF] | 1.32 | 1.25 | 1.22 | 0.723 | 0.819 | 0.823 | 0.444 | 0.789 | 0.501 | 0.731 | 0.619 | 0.571 | 0.949
25 | 1.65 | 0.88 | 0.608 | TRTEAYAVSSF | 0.58 | 0.587 | 0.816 | 0.378 | 0.406 | 0.396 | 0.353 | 0.442 | 0.328 | 0.476 | 0.359 | 0.399 | 0.373
26 | 0.65 | 0.892 | 0.64 | TSESSYYKSLN [NGEF_Y288_A286S] | 0.76 | 0.771 | 0.817 | 0.668 | 0.564 | 0.651 | 0.518 | 0.55 | 0.482 | 0.499 | 0.496 | 0.469 | 0.64
27 | 0.66 | 0.826 | 0.56 | TSSGGYRRTPS [ABI1_Y333] | 0.499 | 0.473 | 0.499 | 0.532 | 0.467 | 0.428 | 0.419 | 0.355 | 0.473 | 0.486 | 0.409 | 0.433 | 0.386
28 | 0.418 | 0.654 | 0.618 | TTGGFYSFGGG [KRT24_Y120_A115T_YF] | 0.623 | 0.604 | 0.847 | 0.442 | 8.96 | 0.446 | 1.67 | 0.766 | 1.55 | 0.585 | 1.57 | 4.22 | 0.46
29 | 0.624 | 1.04 | 0.69 | TTGLIYIGSHD [AASDH_Y870] | 0.726 | 0.715 | 0.759 | 0.565 | 0.323 | 0.79 | 0.408 | 0.686 | 0.424 | 0.488 | 0.46 | 0.375 | 0.445
